Results reported in IntAct's records for PubMed 19684601.

B1: Myocyte-specific enhancer factor 2A (Homo sapiens), Q02078-1 (parent)
chain: MGRKKIQITRIMDERNRQVTFTKRKFGLMKKAYELSVLCDCEIALIIFNSSNKLFQYASTDMDKVLLKYTEYNEPHESRTNSDIVEALNKKEHRGCDSPDPDTSYVLTPHTEEKYKKINEEFDNMMRNHKIAPGLPPQNFSMSVTVPVTSPNALSYTNPGSSLVSPSLAASSTLTDSSMLSPPQTTLHRNVSPGAPQRPPSTGNAGGMLSTTDLTVPNGAGSSPVGNGFVNSRASPNLIGATGANSLGKVMPTKSPPPPGGGNLGMNSRKPDLRVVIPPSSKGMMPPLSEEEELELNTQRISSSQATQPLATPVVSVTTPSLPPQGLVYSAMPTAYNTDYSLTSADLSALQGFNSPGMLSLGQVSAWQQHHLGQAALSSLVAGGQLSQGSNLSINTNQNISIKSEPISPPRDRMTPSGFQQQQQQQQQQQPPPPPQPQPQPPQPQPRQEMGRSPVDSLSSSSSSYDGSDREDPRGDFHSPIVLGRPPNTEDRESPSVKRMRMDAWVT

Variants of: B1
Settings: with sumo2_human SUMO2, P61956
sumo2_human SUMO2, P61956, sequence (P61956 whole entry): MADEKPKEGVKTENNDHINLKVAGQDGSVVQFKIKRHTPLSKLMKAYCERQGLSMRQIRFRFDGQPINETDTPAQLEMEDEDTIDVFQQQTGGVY

Variant	effect of a mutation on the interaction
K403R	disrupting interaction
S408A	disrupting interaction
